From the supplement of paper PMC10126150
± gives the standard deviation of the averaged measurements.

Tested on: ATP
Assay: switch fluorescence ratio, 500 uM ATP over buffer (Cy3 cluster intensity, sum of 5 cycles each) (fold (ratio)); higher = stronger signal-on switching upon ATP binding; sequences stand for … in TCGTCGGCAGCGTCAGATGTGTATAAGAGACAGTTTTTTTTTTTTTTTTTTTTTTTTT…TC
Settings: aptamer strand: ATP DNA aptamer (quencher-CACCTGGGGGAGTATTGCGGAGGAAGG + anchor), 100 nM annealed; ATP concentration: 500 uM
In short: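 The fluorescence ratio divides summed target-cycle Cy3 intensity by summed buffer-cycle Cy3 intensity for each cluster and is averaged per switch-domain sequence. Cy3-labelled switching-strand clusters on a modified Illumina MiSeq flow-cell were annealed to 100 nM quencher-labelled ATP aptamer, then imaged in selection buffer and again after 15 min with 500 uM ATP at 22 °C. Five such cycles were run, with NaOH stripping and re-annealing between them, and clusters outside 100-1000 RFU were excluded.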
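Further: ATP exposure 15 min at 22 °C before imaging.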

Row | Sequence | switch fluorescence ratio
1 | AATCTCCATT | 0.982 ± 0.025
2 | AACCAAGGTT | 1.05 ± 0.082
3 | TCTTAAAGGT | 0.986 ± 0.026
4 | TGGTTGGCGT | 1.04 ± 0.066
5 | TAAGTTAAGC | 1 ± 0.064
6 | AAGCGGAGCC | 0.966 ± 0.023
7 | GATGGGGTAA | 0.997 ± 0.008
8 | TTGAGGATAG | 0.987 ± 0.021
9 | CTAGTATGTT | 0.979 ± 0.02
10 | AGATGAGGAC | 0.922 ± 0.049
11 | CACTGGCATG | 0.998 ± 0.029
12 | TTTAAACTTT | 1.013 ± 0.0075
13 | AAATAATTCG | 0.997 ± 0.032
14 | CGCTATTCGG | 1.04 ± 0.043
15 | TTCCTAATTG | 1.01 ± 0.012
16 | CCAATGCAGC | 3.22 ± 0.27
17 | GGGATTAACT | 1 ± 0.031
18 | TCAATCTGGG | 1.006 ± 0.0066
19 | TATGTAAATT | 1.01 ± 0.012
20 | TCTTTTTTAG | 0.998 ± 0.036
21 | TGGAGCCTTT | 1.1 ± 0.18
22 | AGTTAAAGTG | 1.03 ± 0.057
23 | TGGCTGACTT | 1.01 ± 0.016

Row | Sequence | switch fluorescence ratio
24 | TCTAAAAGTG | 0.9752 ± 0.0022
25 | ACCGTTTGGT | 0.999 ± 0.038
26 | TCGCCAATTG | 1.0649 ± 0.00052
27 | TAAATTTTTC | 1.042 ± 0.008
28 | CGGATTTCAG | 0.951 ± 0.03
29 | ATGGTTGGGT | 0.994 ± 0.012
30 | GTGGTTTGGG | 0.988 ± 0.06
31 | GGGATCCGAC | 1.05 ± 0.041
32 | TAATAGGCTT | 1.01 ± 0.027
33 | TGAAGGCCGG | 0.995 ± 0.033
34 | TCAGTGAACT | 1 ± 0.039
35 | TGTGTGGGGA | 1.01 ± 0.027
36 | TGACTCACGG | 1.08 ± 0.029
37 | GATGCGTGGC | 0.998 ± 0.027
38 | TATACTGGGA | 0.995 ± 0.012
39 | TTTTAAGAGG | 1.01 ± 0.046
40 | AGGGAGAAGT | 0.9853 ± 0.002
41 | ATGTCCAAGG | 1.005 ± 0.0071
42 | ATATGGGAGG | 0.969 ± 0.016
43 | TGTTTAAACG | 1.025 ± 0.005
44 | ATAGATGATC | 1 ± 0.031
45 | TATCGTAGGC | 0.9996 ± 0.00057
46 | TTGATTGTTT | 0.987 ± 0.016

Row | Sequence | switch fluorescence ratio
47 | TTGCTGAGGA | 0.962 ± 0.015
48 | AAGGGACGTG | 0.984 ± 0.019
49 | TTCCCACGGG | 1.64 ± 0.31
50 | ACGTTGATGG | 0.9882 ± 0.0095
51 | AACTTTTTAT | 1.04 ± 0.042
52 | TGGAAAAGGT | 1.0134 ± 0.00089
53 | CGAGAAGGGT | 0.997 ± 0.039
54 | CCTTGGGGGG | 1.03 ± 0.11
55 | TTTTTTTACT | 1.02 ± 0.029
56 | AATTCGACGA | 1.006 ± 0.0056
57 | CTGGGGTATG | 0.985 ± 0.028
58 | CTGGGTGTAT | 0.984 ± 0.063
59 | CCTGGCAGCG | 1.05 ± 0.03
60 | GTTAAGGGCC | 0.99 ± 0.011
61 | TTTGATCGGA | 0.965 ± 0.062
62 | TTCGTTGTGC | 1.01 ± 0.02
63 | GATTTGTAAA | 0.99 ± 0.029
64 | CAGTGTTCCG | 0.977 ± 0.042
65 | TTAGTATCGA | 0.966 ± 0.029
66 | ACGGCCACTG | 1.07 ± 0.019
67 | TAAGGCCTGT | 0.9978 ± 0.0099
68 | GTTATGCGCG | 1.03 ± 0.013
69 | TAGGCCGCTG | 1.07 ± 0.15

Row | Sequence | switch fluorescence ratio
70 | TCGGGGTCTT | 0.9941 ± 0.0029
71 | AGTAACATTT | 0.974 ± 0.069
72 | GTTTCTGGGG | 0.971 ± 0.052
73 | AGTCTGCTGT | 0.984 ± 0.037
74 | CGAGCTTTGA | 1.034 ± 0.0084
75 | ATGGAAGTTA | 1.011 ± 0.0057
76 | AGATTACGAG | 1.02 ± 0.026
77 | GGAACCCAGA | 0.988 ± 0.021
78 | TTTGTTAGGG | 0.994 ± 0.022
79 | GACCTAGTGT | 1.03 ± 0.019
80 | ATTTTACCAT | 1.04 ± 0.075
81 | TTTTTGCTCA | 0.9912 ± 0.0055
82 | GGCAGCTTTT | 1.05 ± 0.088
83 | AGGGGTTTTT | 0.991 ± 0.011
84 | GCGAAAGTTG | 1.014 ± 0.0032
85 | TGGTTTTTGA | 0.988 ± 0.038
86 | TGCTCCGGAG | 1.018 ± 0.006
87 | TAGGGGGAGC | 1.01 ± 0.062
88 | GATTTCAGCT | 0.997 ± 0.019
89 | TTTAGCTTTA | 0.9735 ± 0.0092
90 | ACTGGGGACG | 1.02 ± 0.053
91 | AGAAAAATTT | 1.19 ± 0.29
92 | TTTGAGGAAG | 1.01 ± 0.022

Row | Sequence | switch fluorescence ratio
93 | TTTTAGTTCC | 1.05 ± 0.018
94 | CCTTAATTTG | 1.007 ± 0.0089
95 | AGGCCTGAAA | 0.983 ± 0.07
96 | ATGGGGGACT | 1.02 ± 0.051
97 | TGAAGGGTCA | 0.968 ± 0.022
98 | CTTTTTTGTT | 1 ± 0.021
99 | AGTTCGGTGC | 0.9799 ± 0.0012
100 | AAAATTTAAT | 1.01 ± 0.016
101 | TTGGGTTCGG | 0.987 ± 0.038
102 | CAGTGTCTGA | 1.05 ± 0.037
103 | GGTGCTTAGG | 1.02 ± 0.024
104 | AGTAAGAGTC | 1.01 ± 0.017
105 | ACTGGTGGCA | 1.04 ± 0.028
106 | TGCGTATGAA | 0.9796 ± 0.0097
107 | GTAGGCGGGG | 0.99 ± 0.018
108 | GTATTGGATA | 0.998 ± 0.042
109 | TGGACGGAAG | 0.984 ± 0.018
110 | ATTAAAAAAA | 1.11 ± 0.18
111 | GAAGAGAGGT | 0.9901 ± 0.0037
112 | GGTCGAGGGG | 0.997 ± 0.021
113 | TTTAAGTATT | 0.999 ± 0.02
114 | GAGTAGTAGT | 0.967 ± 0.026
115 | CTTCATGCTT | 1.02 ± 0.048

Row | Sequence | switch fluorescence ratio
116 | GGATTCCGGG | 0.988 ± 0.027
117 | TTTGATCTAT | 0.989 ± 0.028
118 | TTGTTTAATA | 1.02 ± 0.019
119 | GATATTAAAG | 1.02 ± 0.014
120 | ATAGTCCCTA | 1.01 ± 0.0019
121 | ATCTAAAGTT | 1.023 ± 0.0016
122 | GAGGTGCCTA | 0.991 ± 0.02
123 | AGTTTTTTTC | 1.02 ± 0.023
124 | TATTTTATTA | 1.011 ± 0.0085
125 | TGGGACAGGC | 0.965 ± 0.089
126 | TATAGGGCAT | 1.01 ± 0.032
127 | GGGTATTGGT | 0.996 ± 0.025
128 | CGGTAGGCGA | 0.985 ± 0.027
129 | TAGGGGCGAG | 0.989 ± 0.048
130 | TAGCTTGTTG | 1.02 ± 0.025
131 | TTGGCGCTTG | 1.02 ± 0.025
132 | AAATACGTAT | 1.04 ± 0.046
133 | TTTGTACTTC | 1.02 ± 0.049
134 | GGGGCATGAG | 1.04 ± 0.021
135 | TCGTTCGCTA | 3.15 ± 0.39
136 | TACGAGGGTC | 0.969 ± 0.024
137 | TCTGGACATT | 1.01 ± 0.023
138 | GGTTGATAAT | 1.002 ± 0.0043

Row | Sequence | switch fluorescence ratio
139 | TGCAATTAAC | 3.51 ± 0.17
140 | CATCTCTGGA | 0.9986 ± 0.0016
141 | CGTTAAGTGG | 0.973 ± 0.04
142 | CGGGACTCCG | 1.02 ± 0.0032
143 | TGCAACCTCA | 1.09 ± 0.043
144 | ACCCCCTTCT | 1.32 ± 0.048
145 | ATTGACGGCA | 1.02 ± 0.032
146 | GAAGTGGGTT | 0.989 ± 0.024
147 | ATAGGGGCTC | 0.988 ± 0.021
148 | TGGGGGCTGG | 0.991 ± 0.013
149 | CAATATAGTG | 0.981 ± 0.024
150 | GACGTCTGGG | 0.986 ± 0.013
151 | GGGGGGTAGT | 1.02 ± 0.067
152 | TTGATGCTAT | 1.32 ± 0.43
153 | GGGTATGGTT | 0.998 ± 0.028
154 | GGTGGAGGGT | 0.9938 ± 0.0025
155 | TTACGATTTT | 0.993 ± 0.039
156 | GACGTATTTT | 0.9993 ± 0.0013
157 | CGTACATGAG | 1.02 ± 0.037
